Target: DosR (Mycobacterium tuberculosis H37Rv) (UniProt P9WMF9)
Test: EMSA
Conditions: 25 mM Tris-HCl pH 8.0, 20 mM KCl, 0.5 mM EDTA, 6 mM MgCl2, 1 mM DTT, 1 ug/mL poly I:C; room temperature, 10 min; 6.5% native Tris-glycine PAGE, silver staining

Sequence: TTGATGCCTCCTAATCGATGGAAACGGATGCCTTTGATCCGACCAGCCCATCGTGGCCAGGGCTAGGGACAGAAGTCCCCGAAGCGCGGGCCATTTGTCCGCGCCCGTCGGTGATCCACTTGGGGACCATTGACCCTGTTGTCTGCCA (double strand) [acr promoter fragment]
- binding: binds

Source: article PMC5861037
